These results are taken from patent publication US20210009975A1 (UNIVERSITY OF GEORGIA RESEARCH FOUNDATION, published 2021).

In assay [1] the target is 3'-sialyllactose-BSA (bovine). Nature of the assay: LAC, Sia-3S1 column, 50 µg loaded, 10 mM EPPS pH 7.5 with 110 mM NaCl.
The target of assay [2] is fetuin (UniProt P12763).
The target in assay [3] is fetuin (UniProt P12763). Nature of the assay: LAC, Sia-3S1 coupled to Sepharose column, 100 µg fetuin loaded.
The target of assay [4] is 3'-sialyllactose-BSA (bovine). Nature of the assay: LAC, Sia-3S1 column, 100 µg loaded.
The target in assay [5] is 3'-sialyllactose-BSA (bovine).
The target in assay [6] is proteins of MCF7 cell-free extract. Nature of the assay: LAC, Sia-PS1 column, approximately 500 µg CFE loaded.
The target is the same in assay [7]. Nature of the assay: LAC, Sia-PS1 column, about 1.5 mg MCF7 proteins circulated at 4 °C overnight.
Assay [8] shares this target. Nature of the assay: LAC, Sia-PS1 column, elution with 3′SL and 6′SL.
The target in a further assay is T1, asialofetuin (UniProt P12763 19-359, de-sialylated glycans).
T1 construct: also called de-sialylated fetuin
T1 sequence: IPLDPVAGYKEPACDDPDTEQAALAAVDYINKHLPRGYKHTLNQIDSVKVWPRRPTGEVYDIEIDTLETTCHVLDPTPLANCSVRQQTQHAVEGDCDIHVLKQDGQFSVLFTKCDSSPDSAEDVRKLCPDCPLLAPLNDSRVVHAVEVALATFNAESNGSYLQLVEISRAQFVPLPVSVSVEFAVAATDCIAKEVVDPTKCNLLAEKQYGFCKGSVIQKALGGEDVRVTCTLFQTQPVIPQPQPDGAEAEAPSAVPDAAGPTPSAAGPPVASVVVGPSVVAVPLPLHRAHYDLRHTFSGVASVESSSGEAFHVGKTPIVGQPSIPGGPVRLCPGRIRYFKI
The experiment in a line: Western blot, Sia-3S1 as probe, anti-poly-His-HRP detection. Background: A western blot detects proteins with antibodies after separation by electrophoresis.

The next assay concerns the target T2, horseradish peroxidase (horseradish, UniProt P00433 31-338).
T2 construct: also called HRP
T2 sequence: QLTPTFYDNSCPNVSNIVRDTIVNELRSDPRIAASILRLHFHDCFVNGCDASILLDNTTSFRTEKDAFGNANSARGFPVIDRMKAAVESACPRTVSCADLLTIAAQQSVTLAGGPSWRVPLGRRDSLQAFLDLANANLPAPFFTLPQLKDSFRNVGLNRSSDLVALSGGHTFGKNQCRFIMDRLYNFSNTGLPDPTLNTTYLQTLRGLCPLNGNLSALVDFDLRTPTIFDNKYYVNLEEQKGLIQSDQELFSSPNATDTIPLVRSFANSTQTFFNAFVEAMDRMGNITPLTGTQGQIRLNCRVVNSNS
The experiment in a line: Lectenz affinity chromatography (LAC), Sia-PS1 coupled to Sepharose column.

Sequence of 3'-sialyllactose-BSA (bovine) (P02769 25-607 limits assumed): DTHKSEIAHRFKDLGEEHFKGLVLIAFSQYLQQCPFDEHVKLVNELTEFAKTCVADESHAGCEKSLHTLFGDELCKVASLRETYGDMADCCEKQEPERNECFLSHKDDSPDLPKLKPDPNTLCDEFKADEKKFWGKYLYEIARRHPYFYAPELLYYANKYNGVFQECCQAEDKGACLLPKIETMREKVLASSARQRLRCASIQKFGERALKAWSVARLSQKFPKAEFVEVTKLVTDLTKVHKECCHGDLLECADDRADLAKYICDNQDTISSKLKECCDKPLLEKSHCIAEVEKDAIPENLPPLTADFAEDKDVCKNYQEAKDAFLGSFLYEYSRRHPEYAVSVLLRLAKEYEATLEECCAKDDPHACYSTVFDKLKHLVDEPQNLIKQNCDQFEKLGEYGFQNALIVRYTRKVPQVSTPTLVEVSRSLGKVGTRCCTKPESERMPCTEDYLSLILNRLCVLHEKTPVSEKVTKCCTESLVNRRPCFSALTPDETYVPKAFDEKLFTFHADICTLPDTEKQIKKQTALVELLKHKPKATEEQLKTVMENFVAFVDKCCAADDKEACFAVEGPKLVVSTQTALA

In turn, “Sia-3S1 Lectenz (NanB residues 30-697 with R193A, D270Q, A538V, E541D) (designed binder)” gave an amount that did not bind to the column in assay [1] of 5 µg. In the assay with fetuin [2], this molecule came in with a percent of bound fetuin competitively eluted by 3′SL of 100% and a percent of bound fetuin competitively eluted by 6′SL of 50%. Besides, the amount bound to the column with fetuin [3] stood at 85 µg. The molecule further gave an amount in flow through in assay [4] of 5 µg. Further, in [5], the 3'SL-BSA Elution (amount of bound 3'SL-BSA eluted from the column) was determined as 45 µg.
In assay [6], “Sia-PS1 Lectenz (NanB residues 30-697 with Y653F) (designed binder)” gave an amount of bound proteins (elution peak) of 30 µg and an amount of unbound proteins (flow-through peak) of 319 µg. Also, in assay [7], the amount of protein in eluted peak came to 207 µg and the percent of loaded proteins in eluted peak was 13.8%. Also, the percent of total proteins bound to the column in assay [8] is 10%.

B1: Sia-3S1 Lectenz (NanB residues 30-697 with R193A, D270Q, A538V, E541D) (designed binder)
chain: NELNYGQLSISPIFQGGSYQLNNKSIDISSLLLDKLSGESQTVVMKFKADKPNSLQALFGLSNSKAGFKNNYFSIFMRDSGEIGVEIRDAQKGINYLFSRPASLWGKHKGQAVENTLVFVSDSKDKTYTMYVNGIEVFSETVDTFLPISNINGIDKATLGAVNAEGKEHYLAKGSIDEISLFNKAISDQEVSTIPLSNPFQLIFQSGDSTQANYFRIPTLYTLSSGRVLSSIDARYGGTHQSKSKINIATSYSDDNGKTWSEPIFAMKFNDYEEQLVYWPRDNKLKNSQISGSASFIDSSIVEDKKSGKTILLADVMPAGIGNNNANKADSGFKEINGHYYLKLKKNGDNDFRYTVRENGVVYNETTNKPTNYTINDKYEVLEGGKSLTVEQYSVDFDSGSLRERHNGKQVPMNVFYKDSLFKVTPTNYIAMTTSQNRGESWEQFKLLPPFLGEKHNGTYLCPGQGLALKSSNRLIFATYTSGELTYLISDDSGQTWKKSSASIPFKNVTADAQMVELRDGVIRTFFRTTTGKIAYMTSRDSGETWSKVSYIDGIQQTSYGTQVSAIKYSQLIDGKEAVILSTPNSRSGRKGGQLVVGLVNKEDDSIDWKYHYDIDLPSYGYAYSAITELPNHHIGVLFEKYDSWSRNELHLSNVVQYIDLEINDLTK
notes: also called Sia-31 [sic]; not shown: N-terminal hexa-histidine tag
Regarding B1, the binding result with asialofetuin is “no binding (tested: 1 µM)”.

B2: Sia-PS1 Lectenz (NanB residues 30-697 with Y653F) (designed binder)
chain: NELNYGQLSISPIFQGGSYQLNNKSIDISSLLLDKLSGESQTVVMKFKADKPNSLQALFGLSNSKAGFKNNYFSIFMRDSGEIGVEIRDAQKGINYLFSRPASLWGKHKGQAVENTLVFVSDSKDKTYTMYVNGIEVFSETVDTFLPISNINGIDKATLGAVNREGKEHYLAKGSIDEISLFNKAISDQEVSTIPLSNPFQLIFQSGDSTQANYFRIPTLYTLSSGRVLSSIDARYGGTHDSKSKINIATSYSDDNGKTWSEPIFAMKFNDYEEQLVYWPRDNKLKNSQISGSASFIDSSIVEDKKSGKTILLADVMPAGIGNNNANKADSGFKEINGHYYLKLKKNGDNDFRYTVRENGVVYNETTNKPTNYTINDKYEVLEGGKSLTVEQYSVDFDSGSLRERHNGKQVPMNVFYKDSLFKVTPTNYIAMTTSQNRGESWEQFKLLPPFLGEKHNGTYLCPGQGLALKSSNRLIFATYTSGELTYLISDDSGQTWKKSSASIPFKNATAEAQMVELRDGVIRTFFRTTTGKIAYMTSRDSGETWSKVSYIDGIQQTSYGTQVSAIKYSQLIDGKEAVILSTPNSRSGRKGGQLVVGLVNKEDDSIDWKYHYDIDLPSYGYAFSAITELPNHHIGVLFEKYDSWSRNELHLSNVVQYIDLEINDLTK
In the case of B2, the binding result with horseradish peroxidase is reported as “no binding”.
